Assay results published in doi:10.1101/2022.10.13.511879 (bioRxiv, 2022).

How the values were obtained:
[1] = biological target: T1, POPDC2 p.W188X-VN155 (human, UniProt Q9HBU9 1-187); experiment: split reporter
T1 sequence (looked up): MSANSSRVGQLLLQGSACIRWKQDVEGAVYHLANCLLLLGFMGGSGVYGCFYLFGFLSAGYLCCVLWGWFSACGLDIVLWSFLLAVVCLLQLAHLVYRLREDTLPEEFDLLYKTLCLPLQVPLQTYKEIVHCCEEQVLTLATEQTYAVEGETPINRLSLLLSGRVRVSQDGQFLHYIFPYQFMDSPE

[2] = biological target: the molecule itself; experiment: FRET or BRET
[3] = biological target: the molecule itself; experiment: SDS-PAGE and Western blot of oligomer bands that withstand SDS
[4] = biological target: T2, POPDC2-VN155 (human, UniProt Q9HBU9 1-364); experiment: split reporter
T2 sequence (looked up): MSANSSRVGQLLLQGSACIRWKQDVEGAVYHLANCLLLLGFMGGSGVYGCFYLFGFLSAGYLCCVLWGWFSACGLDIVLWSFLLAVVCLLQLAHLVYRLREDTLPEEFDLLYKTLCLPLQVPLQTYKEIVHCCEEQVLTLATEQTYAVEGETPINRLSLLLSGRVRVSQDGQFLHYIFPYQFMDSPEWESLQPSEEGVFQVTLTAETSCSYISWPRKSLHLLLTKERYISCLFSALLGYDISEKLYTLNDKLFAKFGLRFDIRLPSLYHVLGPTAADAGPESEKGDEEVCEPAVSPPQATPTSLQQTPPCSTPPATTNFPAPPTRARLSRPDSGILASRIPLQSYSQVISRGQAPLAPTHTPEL

B1: POPDC1-VC155 (natural protein, human, UniProt Q8NE79 1-360, looked up)
chain: MNYTESSPLRESTAIGFTPELESIIPVPSNKTTCENWREIHHLVFHVANICFAVGLVIPTTLHLHMIFLRGMLTLGCTLYIVWATLYRCALDIMIWNSVFLGVNILHLSYLLYKKRPVKIEKELSGMYRRLFEPLRVPPDLFRRLTGQFCMIQTLKKGQTYAAEDKTSVDDRLSILLKGKMKVSYRGHFLHNIYPCAFIDSPEFRSTQMHKGEKFQVTIIADDNCRFLCWSRERLTYFLESEPFLYEIFRYLIGKDITNKLYSLNDPTLNDKKAKKLEHQLSLCTQISMLEMRNSIASSSDSDDGLHQFLRGTSSMSSLHVSSPHQRASAKMKPIEEGAEDDDDVFEPASPNTLKVHQLP
With B1 the “BiFC signal relative to the wild-type pair” value [1] was 0.59.

B2: POPDC1 with C-terminal NanoLuc or HaloTag (NanoBRET constructs) (natural protein, human, UniProt Q8NE79 1-360, looked up)
chain: MNYTESSPLRESTAIGFTPELESIIPVPSNKTTCENWREIHHLVFHVANICFAVGLVIPTTLHLHMIFLRGMLTLGCTLYIVWATLYRCALDIMIWNSVFLGVNILHLSYLLYKKRPVKIEKELSGMYRRLFEPLRVPPDLFRRLTGQFCMIQTLKKGQTYAAEDKTSVDDRLSILLKGKMKVSYRGHFLHNIYPCAFIDSPEFRSTQMHKGEKFQVTIIADDNCRFLCWSRERLTYFLESEPFLYEIFRYLIGKDITNKLYSLNDPTLNDKKAKKLEHQLSLCTQISMLEMRNSIASSSDSDDGLHQFLRGTSSMSSLHVSSPHQRASAKMKPIEEGAEDDDDVFEPASPNTLKVHQLP
In the case of B2, the “stoichiometry N” value [2] is reported as 2.

B3: POPDC1-CFP (natural protein, human, UniProt Q8NE79 1-360, looked up)
chain: MNYTESSPLRESTAIGFTPELESIIPVPSNKTTCENWREIHHLVFHVANICFAVGLVIPTTLHLHMIFLRGMLTLGCTLYIVWATLYRCALDIMIWNSVFLGVNILHLSYLLYKKRPVKIEKELSGMYRRLFEPLRVPPDLFRRLTGQFCMIQTLKKGQTYAAEDKTSVDDRLSILLKGKMKVSYRGHFLHNIYPCAFIDSPEFRSTQMHKGEKFQVTIIADDNCRFLCWSRERLTYFLESEPFLYEIFRYLIGKDITNKLYSLNDPTLNDKKAKKLEHQLSLCTQISMLEMRNSIASSSDSDDGLHQFLRGTSSMSSLHVSSPHQRASAKMKPIEEGAEDDDDVFEPASPNTLKVHQLP
B3 was tested, and the “stoichiometry N” value [3] was 2.

B4: POPDC1 p.S201F-VC155 (natural protein, human, UniProt Q8NE79 1-360, looked up)
chain: MNYTESSPLRESTAIGFTPELESIIPVPSNKTTCENWREIHHLVFHVANICFAVGLVIPTTLHLHMIFLRGMLTLGCTLYIVWATLYRCALDIMIWNSVFLGVNILHLSYLLYKKRPVKIEKELSGMYRRLFEPLRVPPDLFRRLTGQFCMIQTLKKGQTYAAEDKTSVDDRLSILLKGKMKVSYRGHFLHNIYPCAFIDFPEFRSTQMHKGEKFQVTIIADDNCRFLCWSRERLTYFLESEPFLYEIFRYLIGKDITNKLYSLNDPTLNDKKAKKLEHQLSLCTQISMLEMRNSIASSSDSDDGLHQFLRGTSSMSSLHVSSPHQRASAKMKPIEEGAEDDDDVFEPASPNTLKVHQLP
With B4 the “BiFC signal relative to the wild-type pair” value [4] was 0.43.

B5: POPDC1 p.Q153X-VC155 (domain or fragment, human, UniProt Q8NE79 1-152, looked up)
chain: MNYTESSPLRESTAIGFTPELESIIPVPSNKTTCENWREIHHLVFHVANICFAVGLVIPTTLHLHMIFLRGMLTLGCTLYIVWATLYRCALDIMIWNSVFLGVNILHLSYLLYKKRPVKIEKELSGMYRRLFEPLRVPPDLFRRLTGQFCMI
For B5, the “BiFC signal relative to the wild-type pair” value [4] was 0.248.
